Where a chain is given by its changes, count along the chain named. Entries after “also recorded” stand apart in the source; their conditions may differ.
B1: #33: chicken-mouse chimeric anti-FSTL1 antibody clone; variable regions SEQ ID NO: 823 (light), 825 (heavy) (antibody, V domains shown)
VH: AVTLDESGGGLQTPGGGLSLVCKASGFTFSSFNMNWVRQAPGKGLEYVAEISGTGSSTYYGSAVKGRATISRDNGQSTVRLQLNNLRAEDTATYFCARGDGAYSIDAWGHGTEVIVSS
VL: ASTQPSSVSANPGETVEITCSGDSSYYGWFQQKSPGSAPVTVIYDNTNRPSDIPSRFSGSKSGSTATLTITGVRAEDEAVYYCGGYDSSTYDGIFGAGTTLTVL
modifications: mouse constant regions
B2: #5-8: chicken-mouse chimeric anti-FSTL1 antibody clone; variable regions SEQ ID NO: 771 (light), 773 (heavy) (antibody, V domains shown)
VH: AVTLDESGGGLQTPGGGLSLVCKGSGFTFSSFNMFWVRQAPGKGLEWVAGIGKDGVPKYGTAVDGRATISKDNGQSTMRLQLNNLRAEDTGTYFCAKAAGGCSYDWCGIYTGDIDTWGHGTEVIVSS
VL: ASTQPSSVSANPGEAVKITCSGGSGSYYGWYQQKSPGSAPVTVIYNNNQRPSDIPSRFSGSKSGSTATLTITGVQAEDEAVYFCGGYDSSTGHGGIFGAGTTLTVL
modifications: mouse constant regions
B3: #8-1: chicken-mouse chimeric anti-FSTL1 antibody clone; variable regions SEQ ID NO: 791 (light), 793 (heavy) (antibody, V domains shown)
VH: B2 VH with G17A, T61A, T111A
VL: B2 VL with T91S
modifications: mouse constant regions
B4: #13: chicken-mouse chimeric anti-FSTL1 antibody clone; variable regions SEQ ID NO: 815 (light), 817 (heavy) (antibody, V domains shown)
VH: AVTLDESGGGLQTPGGGLSLVCKASGFTFSSVTMQWVRQAPGKGLEWVASICSGSSTYYGPAVKGRATISRDNGQNTVRLQLNNLRAEDTATYYCAKIVGRGRWSCTSAAYNIDAWGHGTEVIVSS
VL: ASTQPSSVSANPGETVKITCSGGGNNYGWYQQKSPGSAPVTVIYNNNNRPSNIPSRFSGSKSGSTNTLTITGVQAEDEAVYYCGSYDSSSDSGIFGAGTTLTVL
modifications: mouse constant regions
B5: #6-55: chicken-mouse chimeric anti-FSTL1 antibody clone; variable regions SEQ ID NO: 783 (light), 785 (heavy) (antibody, V domains shown)
VH: AVTLDESGGGLQTPGGALSLVCKGSGFTFTSVTMQWVRQAPGKGLEWVASVCSGSSTYYAPAVKGRATISRDNGQSTVRLQLSNLRPEDTGTYYCAKIAGRARWSCTSAAYNIDAWGHGTEVIVSS
VL: ASTQPSSVSAIPGETVKITCSGGGNNYGWYQQRSPGSAPVTVIYYNDNRPSNIPSRFSGSTSGSTSTLTITGVQADDEAIYYCGSWDSNTDSGIFGAGTTLTVL
modifications: mouse constant regions

Key:
[1] = test system: GFP+F10-snail+ tumor cells; experiment: In vivo drug efficacy of each anti-FSTL1 antibody clone, GFP+F10-snail+ tumor model (Example 32); parameters: species or system mouse; settings: intraperitoneal 10 mg/kg on days 4 and 7; vs control antibody
Protocol: (§1) • Day 0: transplantation of GFP+F10-snail+ tumor cells (3×10^5 cells subcutaneously & 2×10^4 cells intravenously) • Day 4: intraperitoneal administration of the antibody (first dose, 10 mg/kg) • Day 7: intraperitoneal administration of the antibody (second dose, 10 mg/kg)
(§2) Subcutaneous tumor was measured 4, 7, 10, 14, 17, 20, and 23 days after tumor cell transplantation.
Experiment Group (n=5) Control IgG (anti-DNP mAb) • #6-55 • #7 • #10 • #13 • #33
• Day 0: transplantation of GFP+F10-snail+ tumor cells (3×10^5, cells subcutaneously & 2×10^4 cells intravenously) • Day 4: intraperitoneal administration of the antibody (first dose, 10 mg/kg) • Day 7: intraperitoneal administration of the antibody (second dose, 10 mg/kg)

[2] = test system: GFP+F10-snail+ tumor cells; experiment: as above; parameters: species or system mouse; settings: intraperitoneal 10 mg/kg on days 4 and 7; for mouse survival period (life-prolonging effect): FIG. 121
Protocol: as §1, §2

FSTL1 [3] = target: T1, FSTL1 (Homo sapiens, UniProt Q12841); experiment: MSC induction inhibition test using mouse bone marrow cells stimulated with FSTL1 (Example 27); assay type: cell-based; parameters: purchased R&D Systems, Inc. 1694-FN-050; settings: FSTL1 20 ng/mL, antibody 10 μg/mL, 8 days
T1 sequence (Q12841 21-308): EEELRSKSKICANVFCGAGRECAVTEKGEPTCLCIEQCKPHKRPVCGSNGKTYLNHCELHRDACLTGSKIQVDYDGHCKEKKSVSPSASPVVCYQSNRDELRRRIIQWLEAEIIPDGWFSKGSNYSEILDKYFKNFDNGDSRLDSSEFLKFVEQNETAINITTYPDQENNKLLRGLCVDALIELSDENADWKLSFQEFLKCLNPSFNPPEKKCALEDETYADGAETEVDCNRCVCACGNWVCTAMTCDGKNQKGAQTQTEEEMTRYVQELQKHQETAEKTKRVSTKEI
Protocol: (§3) In this Example, the inhibitory activity of the anti-FSTL1 antibody was confirmed in an experimental system of mesenchymal stem cell induction while a FSTL1 inhibitory effect on MSC expansion induced not only by FSTL1 but by Snail+ tumor cells was also evaluated. For specific operation, each antibody (10 μg/mL) was added to systems in which C57/BL/6 mouse-derived bone marrow cells were stimulated with FSTL1 (20 ng/mL) or a culture supernatant of tumor cells. After culture for 8 days under stimulation, cell fraction CD45(−) cells (MSCs) containing MSCs at a high rate and CD45(−)CD146(+)ALCAM(+) cells (sMSCs) increasing in number in association with cancer metastasis were analyzed by flow cytometry in the same way as in Example 14, and the number of cells per culture system was counted. In this Example, mouse immunoglobulin manufactured by BioLegend, Inc. (4401408, Cone MG1-45) was used as a control antibody.
as §3, with “(#401408,” for “(4401408,”

FSTL1 [4] = target: T1, FSTL1; experiment: Inhibition of activation of tumor cells by FSTL1, RANKL- and CCR2-positive cells in human pancreatic cancer cell line Panc1 (Examples 5, 7, 9, 10, 11); assay type: cell-based; parameters: purchased R&D Systems, Inc. 1694-FN-050; settings: Example 9; FSTL1 20 ng/mL, antibody 10 μg/mL, 3 days
[5] = test system: mouse melanoma cells (B16-F10) forced to express Snail; experiment: In vivo, intraperitoneal administration, Snail-positive B16-F10 bone metastasis model (Example 18); parameters: species or system C57BL/6N mice; settings: intraperitoneal 10 mg/kg on days 5 and 10; day 14
Source text: 1. Experiment Group (n=5) • 1. No treatment (0.9% NaCi as a sham) • 2. Control IgG (anti-DNP) • 3. Anti-FSTL1 Clone #6-55 • 4. Anti-FSTL1 Clone #7-34 • 5. Anti-FSTL1 Clone #8-1 […]
• Effects on the growth of subcutaneous tumor (calculation of tumor volume by tumor size measurement): measured 7, 11, and 14 days after tumor implantation (FIG. 12B) • Effects on bone metastasis (GFP-positive tumor cells in bone marrow or the spleen) (FIGS. 12A and 12C) • Effects on MSC expansion (CD45-negative cells in bone marrow or the spleen) (FIGS. 12A and 12C) • Effects on weight loss (FIG. 12A) • Effects on the expansion of immunosuppressive Treg cells (CD4-positive and Foxp3-positive cells in the spleen) (FIG. 12C) • Other immunosuppressive properties (FIG. 12C)
In Example 17, the antibody was administered into tumor according to the purpose of “inhibiting metastasis from a primary focus to bone” as previously conducted by the present inventors. […] Specifically, antitumor effects and immunosuppression-mitigating effects were comparatively analyzed by the intraperitoneal administration (systemic administration) of the anti-FSTL1 antibody using bone metastasis models in which mouse melanoma cells (B16-F10) forced to express Snail were subcutaneously and intravenously transplanted in C57BL/6N mice. […]

| Molecule | mouse survival period (life-prolonging effect) [1] | mouse survival period (life-prolonging effect) [2] | inhibitory effect in the MSC induction inhibition test (CD45(−) MSCs and sMSCs, flow cytometry) (FSTL1 [3]) | inhibitory activity against the expansion of RANKL-positive cells and CCR2-positive cells (FSTL1 [4]) | anti-weight loss effect [5] | also measured |
| --- | --- | --- | --- | --- | --- | --- |
| B1 | therapeutic effects equal to or higher than those of #6-55 | therapeutic effects equal to or higher than those of #6-55 | strong inhibitory effect equivalent to or higher than that of #6-55 |  |  | MSC induction inhibitory activity, reproducibility confirmed (FSTL1 [3]): high MSC induction inhibitory activity equivalent to or higher than that of #6-55 |
| B2 |  |  |  | higher inhibitory activity; also recorded: exhibited inhibitory activity |  |  |
| B3 |  |  |  |  | an anti-weight loss effect (right graph of FIG. 12A) was confirmed |  |
| B4 |  |  | strong inhibitory effect equivalent to or higher than that of #6-55 |  |  |  |
| B5 | statistically significant life-prolonging effect | statistically significant life-prolonging effect |  | higher inhibitory activity; also recorded: exhibited inhibitory activity | an anti-weight loss effect (right graph of FIG. 12A) was confirmed | suppressive activity against subcutaneous tumor growth [1]: statistically significant suppressive activity; suppressive activity against subcutaneous tumor growth ([2]; vs control antibody group, FIG. 120): statistically significant suppressive activity |

From patent US20180021429A1, “ANTICANCER AGENTS OR ANTIMETASTATIC AGENTS USING FSTL1 AND COMBINATION DRUG THEREOF” (PHARMA FOODS INTERNATIONAL CO., LTD., priority 2015, published 2018)
